Assay results published in patent publication US20170056473A1 (published 2017).

What was measured:
Assay in all cases: cytokine release
[1] = biological target: T1, EBV LMP1; LMP1*32 peptide on HLA-A*02:01 (human)
T1 peptide: LLLALLFWL

[2] = biological target: T2, EBV LMP1; printed as LMP1*125 (the same label as …) peptide on HLA-A*02:01 (human)
T2 peptide: YLQQNWWTL

[3] = biological target: T3, EBV LMP1; LMP1*92 peptide on HLA-A*02:01 (human)
T3 peptide: LLLIALWNL

[4] = biological target: T4, EBV LMP1; LMP1*167 peptide on HLA-A*02:01 (human)
T4 peptide: LLVDLLWLL

[5] = biological target: T5, EBV LMP1; LMP1*173 peptide on HLA-A*02:01 (human)
T5 peptide: WLLLFLAIL

[6] = biological target: T6, EBV LMP1; LMP1*125 peptide on HLA-A*02:01 (human)
T6 peptide: YLLEMLWRL

B1: LMP1*166 S4-12 TCR (TCR, V domains shown)
Valpha: GEQVEQRPPHLSVREGDSAVIICTYTDPNSYYFFWYKQEPGAGLQLLMKVFSSTEINEGQGFTVLLNKKDKQLSLNLTAAHPGDSAVYFCAVSGTGGYKVVFGSGTRLLVSP
Vbeta: NSKVIQTPRYLVKGQGQKAKMRCIPEKGHPVVFWYQQNKNNEFKFLINFQNQEVLQQIDMTEKRFSAECPSNSPCSLEIQSSEAGDSALYLCASNQLGSSYEQYFGPGTRLTVL
binding result [1]: no recognition | binding result [2]: no recognition | binding result [3]: no recognition | binding result [4]: recognises | binding result [5]: no recognition | binding result [6]: no recognition
